Data published in patent publication US20250161220A1, “LYMPHATIC DELIVERY OF NANOPARTICLES TO TREAT NEURODEGENERATIVE, NEUROLOGICAL, AND EYE CONDITIONS” (The Cleveland Clinic Foundation, priority 2022, published 2025).

Experiment: Catalytic activity of recombinant human CAT versus bovine CAT
Format: biochemical
Details: data normalized to per mg
Source text: In certain embodiments, the nanoparticles are formulated with antioxidant enzymes. For example, the following may be employed for generating SOD and catalase nanoparticles. […] In certain embodiments, SOD is an enzyme that catalyzes the conversion of superoxide to H2O2 and catalase is an enzyme that further degrades H2O2 to molecular oxygen and water. The SOD and catalase for use in the methods and compositions of the invention can be obtained from a variety of sources. In a particular embodiment, the SOD and/or catalase are mammalian SOD and/or mammalian catalase, and/or recombinant catalase. As used herein “mammal” and/or “mammalian” refer to a primate, canine, feline, rodent, and the like. Specific examples of mammalian SOD and/or catalase include human, pig, dog, cat, horse, cow, sheep, goat, rabbit, guinea pig, rats and mice SOD and/or catalase.

B1: Human CAT: Recombinant human catalase obtained from BioVision or Creative BioMart (protein, UniProt P04040 2-527, looked up)
Catalase: ADSRDPASDQMQHWKEQRAAQKADVLTTGAGNPVGDKLNVITVGPRGPLLVQDVVFTDEMAHFDRERIPERVVHAKGAGAFGYFEVTHDITKYSKAKVFEHIGKKTPIAVRFSTVAGESGSADTVRDPRGFAVKFYTEDGNWDLVGNNTPIFFIRDPILFPSFIHSQKRNPQTHLKDPDMVWDFWSLRPESLHQVSFLFSDRGIPDGHRHMNGYGSHTFKLVNANGEAVYCKFHYKTDQGIKNLSVEDAARLSQEDPDYGIRDLFNAIATGKYPSWTFYIQVMTFNQAETFPFNPFDLTKVWPHKDYPLIPVGKLVLNRNPVNYFAEVEQIAFDPSNMPPGIEASPDKMLQGRLFAYPDTHRHRLGPNYLHIPVNCPYRARVANYQRDGPMCMQDNQGGAPNYYPNSFGAPEQQPSALEHSIQYSGEVRRFNTANDDNVTQVRAFYVNVLNEEQRKRLCENIAGHLKDAQIFIQKKAVKNFTEVHPDYGSHIQALLDKYNAEKPKNAIHTFVQSGSHLAAREKANL
catalytic potency relative to bovine CAT: 5.7 fold
